Data as given in patent publication US20230312724A1 (KADMON, published 2023).
Changes are numbered by the printed parent chain.

Tests used:
human B7-H4-Fc [1] = target: T1, human B7-H4-Fc (human); assay: ELISA, coated hB7-H4-Fc
T1 construct: also called hB7-H4-Fc; hB7-H4 Fc
Protocol: (§1) ELISA experiments were performed to determine binding to hB7-H4-Fc (FIG. 4A), hB7-H4-his (FIG. 4B), hB7-H4 IgV domain (FIG. 4C), and mB7-H4 IgV domain (FIG. 4D). Flow cytrometry experiments were performed to determine binding to CHO cells expressing hB7-H4 (FIG. 4E) or mB7-H4 (FIG. 4F). […] A cross-reactive IgV binding antibody was used as a control.
(§2) About 1-2 μg/ml of human or mouse B7-H4-Fc (or his-tagged) was immobilized on ELISA plates (Immuno 2HB, Thermo scientific, cat #3455) at 4° C. overnight. After blocking the plates with 3% PBS+milk, serial diluted antibodies were added to the blocked plates and incubated at RT for 1-1.5 h. After washing the plates with PBS-T (0.05%), horse radish peroxidase (HRP)-conjugated antibody targeting the hFab was added to the plate. Signals were developed by adding 3,3′,5,5′-Tetramethylbenzidine (TMB (followed 1N of H₂SO₄ to stop the reaction. The OD at 450 nm was read by ELISA plate reader (Infinite M1000 from TECAN). GraphPad from Prism was used to plot OD450 vs. antibody concentration curve and to calculate the EC50 values.

[2] = target: T2, mB7-H4 (soluble mouse B7-H4, construct not named) (mouse, UniProt Q7TSP5 25-257, limits assumed); assay: summary of ELISA and flow cytometry
T2 sequence: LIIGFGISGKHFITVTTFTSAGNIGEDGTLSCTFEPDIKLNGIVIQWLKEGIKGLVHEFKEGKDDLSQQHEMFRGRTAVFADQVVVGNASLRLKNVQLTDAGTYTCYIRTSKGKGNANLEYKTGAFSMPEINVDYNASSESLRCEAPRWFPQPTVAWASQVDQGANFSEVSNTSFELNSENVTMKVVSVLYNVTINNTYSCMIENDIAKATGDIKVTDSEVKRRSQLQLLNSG

[3] = target: T3, IgV domain of mouse B7-H4-Fc (mouse; human); assay: ELISA, coated mB7-H4 IgV domain
T3 construct: also called mB7-H4 IgV domain
Protocol: as §1, §2

human B7-H4-Fc [4] = target: T1, human B7-H4-Fc; assay: SPR (Biacore)
Protocol: (§3) Surface plasmon resonance experiments were performed using a Biacore T200 instrument equipped with CM5 sensor chips. The system was equilibrated in running buffer HBS-EP pH 7.4. The ligands were immobilized using amine-coupling chemistry. The surfaces of flow cells one through four were activated for 5 min using an amine coupling kit at a flow rate of […]. The ligands (human B7-H4-Fc, human B7-H4-hism and mouse B7-H4-Fc; at a concentration of 5 μg/ml in 10 mM sodium acetate, pH 5.0) were immobilized at a density of 50-100 RU on flow cell 2, 3, 4 respectively. Flow cell 1 was left blank to serve as a reference surface. All flow cell surfaces were blocked with a 5 min injection of 1 M ethanolamine, pH 8.0. To collect kinetic binding data, the respective analyte (diluted in 1×HBS-EP buffer, pH 7.4) was injected over the four flow cells at concentrations of 100 nM to 0.1 nM at a flow rate of […] and at a temperature of 25° C. The protein complex was allowed to associate and dissociate for 180 seconds and 1000 or 1200 seconds, respectively. The surfaces were regenerated with a 30 second injection of 1.5 M NaCl/0.05 M NaOH. The data were fit to a simple 1:1 interaction model using the Langmuir fit option available within the Biaevaluaton software
(§4) The kinetics for binding of the different antibodies to their targets were examined using Biacore analysis.

human B7-H4-his = target: T4, human B7-H4-his (human, UniProt Q7Z7D3 25-259); assay: SPR (Biacore)
T4 construct: also called hB7-H4-his; hB7-H4 his; not shown: his tag
T4 sequence: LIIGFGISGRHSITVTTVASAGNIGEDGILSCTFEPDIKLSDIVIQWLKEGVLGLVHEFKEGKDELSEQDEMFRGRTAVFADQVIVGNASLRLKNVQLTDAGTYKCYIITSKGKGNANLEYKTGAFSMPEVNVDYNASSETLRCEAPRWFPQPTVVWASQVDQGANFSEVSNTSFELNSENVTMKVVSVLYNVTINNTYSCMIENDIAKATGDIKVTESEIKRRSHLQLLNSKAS
Protocol: as §3, §4

mouse B7-H4-his = target: T5, mouse B7-H4-his (mouse, UniProt Q7TSP5 25-257); assay: SPR (Biacore)
T5 construct: also called mB7-H4-his; mB7-H4-His; not shown: his tag
T5 sequence: T2 sequence
Protocol: as §3, §4

mouse B7-H4-Fc [5] = target: T6, mouse B7-H4-Fc (mouse; human); assay: ELISA, coated mB7-H4-Fc (title on the sheet: Binding to mB7H4-Fc)
T6 construct: also called mB7-H4-Fc; mB7-H4-hFc
Protocol: as §1, §2

[6] = target: T7, mouse B7-H4 expressed on cells (mouse, UniProt Q7TSP5 25-257); assay: flow cytometry, CHO cells expressing mB7-H4
T7 construct: also called cellular mB7-H4; mB7-H4/CT26
T7 sequence: T2 sequence
Protocol: (§5) ELISA experiments were performed to determine binding to hB7-H4-Fc (FIG. 3A), hB7-H4-his (FIG. 3B), mB7-H4-Fc (FIG. 3C), and hB7-H4 IgV domain (FIG. 3D). Flow cytometry experiments were performed to determine binding to CHO cells expressing hB7-H4 (FIG. 3E) or mB7-H4 (FIG. 3F).
(§6) Cells were harvested, washed once, and then re-suspended to the concentration of 1×10⁶ cells/ml in ice cold FACS Buffer. 25 μl of cell suspension was added to each well of a 96-well round-bottom microliter plate. Serially diluted antibodies or fusion proteins were added to each well and incubated for 1 hour at 4° C. Cells were washed three times by centrifugation at 1500 rpm for 5 minutes, and then stained with secondary antibody (1:200 dilution) for 30 min at 4° C. in the dark. Cells were washed once, re-suspended in 100 μl PBS buffer and then analyzed using Guava Flow Cytometry EasyCyte system.

mouse B7-H4-Fc [7] = target: T6, mouse B7-H4-Fc; assay: ELISA, coated mB7-H4-Fc
Protocol: as §5, §2

[8] = target: T8, IgC domain of mouse B7-H4-Fc (mouse; human); assay: ELISA, coated mB7-H4 IgC domain
T8 construct: also called mB7-H4 IgC domain

[9] = target: T9, human B7-H4 expressed on cells (human, UniProt Q7Z7D3 25-282); assay: flow cytometry, SK-BR-3 cells
T9 construct: Transfected CHO cells or tumor cell lines that carry hB7-H4; also called cellular hB7-H4
T9 sequence: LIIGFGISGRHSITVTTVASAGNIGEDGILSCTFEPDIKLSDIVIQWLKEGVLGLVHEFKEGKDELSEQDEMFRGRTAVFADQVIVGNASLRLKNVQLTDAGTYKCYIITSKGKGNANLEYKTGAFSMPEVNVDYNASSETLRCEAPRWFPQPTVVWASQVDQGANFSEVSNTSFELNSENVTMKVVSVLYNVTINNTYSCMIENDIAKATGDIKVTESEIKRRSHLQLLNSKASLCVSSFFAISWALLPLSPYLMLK
Protocol: as §6

[10] = target: T7, mouse B7-H4 expressed on cells; assay: flow cytometry, mB7-H4/CT26 cells
Protocol: as §6

[11] = target: T10, hB7-H4 (soluble human B7-H4, construct not named) (human, UniProt Q7Z7D3 25-259, limits assumed); assay: ELISA, hB7-H4
T10 construct: also called soluble hB7-H4
T10 sequence: T4 sequence
Protocol: as §2

mouse B7-H4-Fc [12] = target: T6, mouse B7-H4-Fc; assay: ELISA, coated mB7-H4-Fc; remark: listed apart in the source
Protocol: as §2

[13] = target: T2, mB7-H4 (soluble mouse B7-H4, construct …); assay: ELISA, mB7-H4
Protocol: as §2

[14] = target: T2, mB7-H4 (soluble mouse B7-H4, construct …); assay: SPR (Biacore)
Protocol: as §3

[15] = target: T10, hB7-H4 (soluble human B7-H4, construct …); assay: SPR (Biacore)
Protocol: as §3

[16] = target: T11, IgC domain of human B7-H4-Fc (human); assay: ELISA, coated hB7-H4 IgC domain
T11 construct: also called hB7-H4 IgC domain
T11 sequence (chain, as listed by the source): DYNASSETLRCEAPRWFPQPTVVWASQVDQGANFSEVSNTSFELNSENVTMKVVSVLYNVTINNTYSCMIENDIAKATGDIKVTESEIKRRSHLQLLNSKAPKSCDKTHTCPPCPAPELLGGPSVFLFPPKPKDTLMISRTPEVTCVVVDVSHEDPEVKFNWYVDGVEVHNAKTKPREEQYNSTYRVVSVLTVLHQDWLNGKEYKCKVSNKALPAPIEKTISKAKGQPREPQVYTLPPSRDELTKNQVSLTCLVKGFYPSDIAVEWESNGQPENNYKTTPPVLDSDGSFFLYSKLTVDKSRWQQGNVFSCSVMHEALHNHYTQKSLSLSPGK

T1 sequence (chain, as listed by the source): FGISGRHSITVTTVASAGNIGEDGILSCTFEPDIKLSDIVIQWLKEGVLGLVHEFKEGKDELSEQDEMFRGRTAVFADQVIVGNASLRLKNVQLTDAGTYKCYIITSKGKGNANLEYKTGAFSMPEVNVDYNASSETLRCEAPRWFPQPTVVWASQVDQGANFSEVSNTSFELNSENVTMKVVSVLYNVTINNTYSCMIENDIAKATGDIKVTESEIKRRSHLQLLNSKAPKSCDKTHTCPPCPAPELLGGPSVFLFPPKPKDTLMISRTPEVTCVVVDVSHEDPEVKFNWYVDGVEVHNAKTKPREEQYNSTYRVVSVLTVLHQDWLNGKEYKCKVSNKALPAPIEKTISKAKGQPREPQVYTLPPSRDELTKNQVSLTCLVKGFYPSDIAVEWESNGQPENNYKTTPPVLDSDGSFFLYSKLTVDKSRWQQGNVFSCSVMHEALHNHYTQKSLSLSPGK
T8 sequence (chain, as listed by the source): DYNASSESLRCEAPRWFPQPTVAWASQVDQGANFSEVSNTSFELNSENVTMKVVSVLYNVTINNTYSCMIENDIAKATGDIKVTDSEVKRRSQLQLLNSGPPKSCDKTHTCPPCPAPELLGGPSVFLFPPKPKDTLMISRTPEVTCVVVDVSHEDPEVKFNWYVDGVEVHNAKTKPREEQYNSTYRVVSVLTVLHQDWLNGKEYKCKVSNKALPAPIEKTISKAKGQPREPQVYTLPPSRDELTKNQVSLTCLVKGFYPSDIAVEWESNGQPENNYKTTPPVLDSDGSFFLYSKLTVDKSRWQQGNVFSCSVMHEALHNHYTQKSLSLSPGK
T6 sequence (chain, as listed by the source): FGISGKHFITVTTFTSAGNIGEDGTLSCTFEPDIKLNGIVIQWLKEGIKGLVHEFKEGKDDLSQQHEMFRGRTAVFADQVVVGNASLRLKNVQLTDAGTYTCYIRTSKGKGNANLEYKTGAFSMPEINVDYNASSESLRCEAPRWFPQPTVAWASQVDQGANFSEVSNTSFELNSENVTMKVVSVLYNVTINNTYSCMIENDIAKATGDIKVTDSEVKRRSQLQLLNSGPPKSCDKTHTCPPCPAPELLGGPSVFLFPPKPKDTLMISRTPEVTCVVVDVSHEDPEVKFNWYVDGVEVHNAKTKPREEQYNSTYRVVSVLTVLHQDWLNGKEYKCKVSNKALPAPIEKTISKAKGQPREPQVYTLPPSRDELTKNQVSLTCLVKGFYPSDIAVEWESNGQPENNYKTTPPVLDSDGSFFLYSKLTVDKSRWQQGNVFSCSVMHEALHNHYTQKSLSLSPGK
T3 sequence (chain, as listed by the source): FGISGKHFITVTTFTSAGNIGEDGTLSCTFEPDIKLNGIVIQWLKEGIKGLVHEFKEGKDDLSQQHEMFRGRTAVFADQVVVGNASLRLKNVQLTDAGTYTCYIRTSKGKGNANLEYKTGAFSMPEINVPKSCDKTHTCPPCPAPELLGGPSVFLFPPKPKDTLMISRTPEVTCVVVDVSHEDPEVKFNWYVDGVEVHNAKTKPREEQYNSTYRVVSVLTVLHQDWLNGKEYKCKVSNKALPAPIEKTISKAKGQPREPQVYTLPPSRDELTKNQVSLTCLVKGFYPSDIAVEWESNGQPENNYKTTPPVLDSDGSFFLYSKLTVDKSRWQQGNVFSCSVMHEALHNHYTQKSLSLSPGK

B1: 6C3/6C3 (antibody, human IgG1, V domains shown)
VH: EVQLLESGGGLVQPGGSLRLSCAASGFTFSSYAMHWVRQAPGKGLEWVASISGTGFTTRYADSVKGRFTISRDNSKNTLYLQMNSLRAEDTAVYYCARGGWFRDTPVDYWGQGTLVTVSS
VL: DIVMTQSPLSLPVTPGEPASISCRSSQSLLHSNGYNYLDWYLQKPGQSPQLLIYGASSLRSGVPDRFSGSGSGTDFTLKISRVEAZDVGVYYCMQASHWPPTFGQGTRLEIK
notes: The VL holds a letter Z
- EC50 (read off the curve) (human B7-H4-Fc [1]): ~0.03 µg/mL
- binding result [2]: no binding
- binding result [3]: no binding
- Kd (human B7-H4-Fc [4]): 10.9 nM
- Kd (human B7-H4-his): 6.3 nM
- binding result (mouse B7-H4-his): no binding
- binding result (mouse B7-H4-Fc [5]): no binding (tested: log 0.3 ug/ml (about 2 ug/ml))
- binding result [6]: no binding (tested: axis value -7 (log scale labelled nM))

B2: 1F11/1F11 (antibody, human IgG1, V domains shown)
VH: QVQLVQSGAEVKKPGSSVKVSCKASGDTFTTYQIHWVRQAPGQGLEWMGGIMPIFGTTKYAQNFQGRVTITADESTSTAYMELSSLRSEDTAVYYCARRNYGMDVWGQGTTVTVSS
VL: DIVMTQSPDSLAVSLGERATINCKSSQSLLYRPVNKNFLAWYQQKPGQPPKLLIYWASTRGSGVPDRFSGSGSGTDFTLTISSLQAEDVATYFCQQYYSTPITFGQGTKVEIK
- binding result (mouse B7-H4-Fc [7]): no binding (tested: axis value -8 (log scale labelled nM))
- binding result [2]: no binding
- Kd (human B7-H4-Fc [4]): 1.66 nM
- Kd (human B7-H4-his): 1.11 nM
- binding result (mouse B7-H4-his): no binding
- binding result [6]: no binding (tested: axis value -7 (log scale labelled nM))

B3: 39A11/56A9 (antibody, human IgG1, V domains shown)
VH: EVQLLESGGGLVQPGGSLRLSCAASGFTFSSYGMHWVRQAPGKGLEWVASISSSSGYIYYADSVKGRFTISRDNSKNTLYLQMNSLRAEDTAVYYCARASSGMDVWGQGTTVTVSS
VL: DIQMTQSPSSLSASVGDRVTITCRASQSISSYLNWYQQKPGKAPKLLIYAASIRESGVPSRFSGSGSGTDFTLTISSLQPEDFATYYCQQYYTTPLTFGQGTKLEIK
notes: 39A11 VH with 56A9 VL
- binding result [8]: no binding (tested: log 1 nM (10 nM))
- EC50 [9]: 2.53 nM
- EC50 [10]: 1.85 nM
- EC50 [11]: 0.081 nM
- binding result (mouse B7-H4-Fc [12]): binds
- EC50 [13]: 0.13 nM
- Kd [14]: 1.38 pM
- Kd [15]: 1.21 nM
- binding result [16]: no binding (tested: log 1 nM (10 nM))

B4: 39A11/56H7 (antibody, human IgG1, V domains shown)
VH: B3 VH
VL: B3 VL with I53N, R54L, E55Q
notes: 39A11 VH with 56H7 VL
- binding result [8]: no binding (tested: log 1 nM (10 nM))
- EC50 [9]: 2.85 nM
- EC50 [10]: 1.67 nM
- EC50 [11]: 0.061 nM
- binding result (mouse B7-H4-Fc [12]): binds
- EC50 [13]: 0.107 nM
- Kd [14]: 0.219 pM
- Kd [15]: 0.779 nM
- binding result [16]: no binding (tested: log 1 nM (10 nM))

B5: 39A11/57H3 (antibody, human IgG1, V domains shown)
VH: B3 VH
VL: B3 VL with R24Q, S28D, S30R, S31K, I53T, T93S, T94L
notes: 39A11 VH with 57H3 VL
- binding result [8]: no binding (tested: log 1 nM (10 nM))
- EC50 [9]: 2.07 nM
- EC50 [10]: 1.63 nM
- EC50 [11]: 0.086 nM
- binding result (mouse B7-H4-Fc [12]): binds
- EC50 [13]: 0.128 nM
- Kd [14]: 1.25 pM
- koff [14]: 6.22e-07 s⁻¹
- Kd [15]: 0.478 nM
- binding result [16]: no binding (tested: log 1 nM (10 nM))

B6: 3D1/3D1 (antibody, human IgG1, V domains shown)
VH: QVQLVQSGAEVKKPGSSVKVSCKASGYSFISYAITWVRQAPGQGLEWIGGINPIFGTAKYAQKFQGRVTITADESTSTAYMELSSLRSEDTAVYYCAKGQALIQHWGQGTLVTVSS
VL: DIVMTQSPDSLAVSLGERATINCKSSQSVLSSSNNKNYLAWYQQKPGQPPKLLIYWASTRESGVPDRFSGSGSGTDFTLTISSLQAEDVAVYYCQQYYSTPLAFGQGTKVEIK
- EC50 (read off the curve) (human B7-H4-Fc [1]): ~0.009 µg/mL
- binding result [2]: no binding
- binding result [3]: no binding
- Kd (human B7-H4-Fc [4]): 2.23 nM
- Kd (human B7-H4-his): 28.5 nM
- binding result (mouse B7-H4-his): no binding
- binding result (mouse B7-H4-Fc [5]): no binding (tested: log 0.3 ug/ml (about 2 ug/ml))

B7: 1A12/1A12 (antibody, human IgG1, V domains shown)
VH: EVQLLESGGGLVKPGGSLRLSCAASGFTFSSYAMHWVRQAPGKGLEWVAVISYDGSNKYYADSVKGRFTISRDDSKNTLYLQMNSLKTEDTAVYYCARHGWDAFDIWGQGTLVTVSS
VL: DIQMTQSPSSLSASVGDRVTITCRASQDISNRLNWYQQKPGKAPKLLIYLASSLQGGVPSRFSGSGSGTDFTLTISSLQPEDFATYYCQQAISFPLTFGGGTKVEIK
- binding result (mouse B7-H4-Fc [7]): no binding (tested: axis value -8 (log scale labelled nM))
- binding result [2]: no binding
- Kd (human B7-H4-Fc [4]): 3.57 nM
- Kd (human B7-H4-his): 2.47 nM
- binding result (mouse B7-H4-his): no binding
- binding result [6]: no binding (tested: axis value -7 (log scale labelled nM))
